# Laboratory results taken from IntAct's records for PubMed 31515488.
# B1: Peroxisomal bifunctional enzyme (Homo sapiens), Q08426 (parent)
# chain: MAEYTRLHNALALIRLRNPPVNAISTTLLRDIKEGLQKAVIDHTIKAIVICGAEGKFSAGADIRGFSAPRTFGLTLGHVVDEIQRNEKPVVAAIQGMAFGGGLELALGCHYRIAHAEAQVGLPEVTLGLLPGARGTQLLPRLTGVPAALDLITSGRRILADEALKLGILDKVVNSDPVEEAIRFAQRVSDQPLESRRLCNKPIQSLPNMDSIFSEALLKMRRQHPGCLAQEACVRAVQAAVQYPYEVGIKKEEELFLYLLQSGQARALQYAFFAERKANKWSTPSGASWKTASARPVSSVGVVGLGTMGRGIVISFARARIPVIAVDSDKNQLATANKMITSVLEKEASKMQQSGHPWSGPKPRLTSSVKELGGVDLVIEAVFEEMSLKKQVFAELSAVCKPEAFLCTNTSALDVDEIASSTDRPHLVIGTHFFSPAHVMKLLEVIPSQYSSPTTIATVMNLSKKIKKIGVVVGNCFGFVGNRMLNPYYNQAYFLLEEGSKPEEVDQVLEEFGFKMGPFRVSDLAGLDVGWKSRKGQGLTGPTLLPGTPARKRGNRRYCPIPDVLCELGRFGQKTGKGWYQYDKPLGRIHKPDPWLSKFLSRYRKTHHIEPRTISQDEILERCLYSLINEAFRILGEGIAASPEHIDVVYLHGYGWPRHKGGPMFYASTVGLPTVLEKLQKYYRQNPDIPQLEPSDYLKKLASQGNPPLKEWQSLAGSPSSKL
# partner: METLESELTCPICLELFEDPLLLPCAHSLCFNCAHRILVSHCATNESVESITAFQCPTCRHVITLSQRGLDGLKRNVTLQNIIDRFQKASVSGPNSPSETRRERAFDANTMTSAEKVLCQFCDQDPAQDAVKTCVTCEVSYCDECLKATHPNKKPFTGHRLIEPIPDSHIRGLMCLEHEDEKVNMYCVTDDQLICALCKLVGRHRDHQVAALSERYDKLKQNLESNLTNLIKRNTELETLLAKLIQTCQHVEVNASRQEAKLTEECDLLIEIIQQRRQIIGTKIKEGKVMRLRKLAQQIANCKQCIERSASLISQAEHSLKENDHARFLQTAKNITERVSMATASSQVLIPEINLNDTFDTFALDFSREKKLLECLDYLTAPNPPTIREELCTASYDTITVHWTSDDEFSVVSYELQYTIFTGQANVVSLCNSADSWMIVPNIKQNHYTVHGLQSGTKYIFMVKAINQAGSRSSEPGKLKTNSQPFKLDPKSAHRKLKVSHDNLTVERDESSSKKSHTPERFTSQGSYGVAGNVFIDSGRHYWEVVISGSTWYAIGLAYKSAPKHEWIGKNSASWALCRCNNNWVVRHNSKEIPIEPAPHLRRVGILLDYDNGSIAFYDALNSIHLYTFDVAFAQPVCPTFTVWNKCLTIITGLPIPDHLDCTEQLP
# B2: Notch homolog 2 N-terminal-like protein A (Homo sapiens), Q7Z3S9 (parent)
# chain: MCVTYHNGTGYCKCPEGFLGEYCQHRDPCEKNRCQNGGTCVAQAMLGKATCRCASGFTGEDCQYSTSHPCFVSRPCLNGGTCHMLSRDTYECTCQVGFTGKECQWTDACLSHPCANGSTCTTVANQFSCKCLTGFTGQKCETDVNECDIPGHCQHGGTCLNLPGSYQCQCLQGFTGQYCDSLYVPCAPSPCVNGGTCRQTGDFTFECNCLPETVRRGTELWERDREVWNGKEHDEN
# partner: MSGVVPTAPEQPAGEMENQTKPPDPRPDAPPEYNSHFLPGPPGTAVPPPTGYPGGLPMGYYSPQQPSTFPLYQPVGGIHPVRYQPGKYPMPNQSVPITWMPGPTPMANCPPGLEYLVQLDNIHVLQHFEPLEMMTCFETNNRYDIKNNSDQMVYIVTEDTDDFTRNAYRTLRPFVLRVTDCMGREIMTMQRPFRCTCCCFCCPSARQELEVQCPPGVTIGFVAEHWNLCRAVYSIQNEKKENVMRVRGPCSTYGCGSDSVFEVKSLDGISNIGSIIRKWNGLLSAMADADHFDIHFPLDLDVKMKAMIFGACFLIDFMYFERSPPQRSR
# B3: Radial spoke head protein 3 homolog (Homo sapiens), Q86UC2 (parent)
# chain: MTVKPAKAASLARNLAKRRRTYLGGAAGRSQEPEVPCAAVLPGKPGDRNCPEFPPPDRTLGCWATDAAPAAGLCGAGSEPSIAPTSCAGNLPSRPPPLLSPLLASRNPCPWHYLHLSGSHNTLAPTCFKAKLHRKRGSQPPDMASALTDRTSRAPSTYTYTSRPRALPCQRSRYRDSLTQPDEEPMHYGNIMYDRRVIRGNTYALQTGPLLGRPDSLELQRQREARKRALARKQAQEQLRPQTPEPVEGRKHVDVQTELYLEEIADRIIEVDMECQTDAFLDRPPTPLFIPAKTGKDVATQILEGELFDFDLEVKPVLEVLVGKTIEQSLLEVMEEEELANLRASQREYEELRNSERAEVQRLEEQERRHREEKERRKKQQWEIMHKHNETSQKIAARAFAQRYLADLLPSVFGSLRDSGYFYDPIERDIEIGFLPWLMNEVEKTMEYSMVGRTVLDMLIREVVEKRLCMYEHGEDTHQSPEPEDEPGGPGAMTESLEASEFLEQSMSQTRELLLDGGYLQRTTYDRRSSQERKFMEERELLGQDEETAMRKSLGEEELS
# partner: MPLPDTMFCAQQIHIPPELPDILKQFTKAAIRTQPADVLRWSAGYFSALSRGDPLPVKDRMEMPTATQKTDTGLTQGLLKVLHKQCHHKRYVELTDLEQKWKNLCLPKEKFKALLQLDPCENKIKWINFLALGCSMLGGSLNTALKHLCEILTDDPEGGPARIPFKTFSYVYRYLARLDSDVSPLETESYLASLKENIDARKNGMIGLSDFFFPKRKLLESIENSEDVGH
# B4: Late cornified envelope protein 1B (Homo sapiens), Q5T7P3 (parent)
# chain: MSCQQNQQQCQPPPKCIPKCPPKCLTPRCPPKCPPKCPPVSSCCSVSSGGCCGSSSGGSCGSSSGGCCSSGGGGCCLSHHRRRRSHCHRPQSSGCCSQPSGGSSCCGGGSGQHSGGCC
# Variants of: B1
# Details: with tri18_human MID1, O15344
row,effect of a mutation on the interaction,Variant
1,with no effect,S703F
2,disrupting interaction strength,I646T
3,with no effect,R483Q
4,with no effect,L715S

# Variants of: B2
# Details: with pls4_human PLSCR4, Q9NRQ2
row,effect of a mutation on the interaction,Variant
1,with no effect,R74Q
2,with no effect,A115T

# Variants of: B3
# Details: with rop1l_human ROPN1L
row,effect of a mutation on the interaction,Variant
1,with no effect,G518D
2,with no effect,M439T
3,with no effect,E484K

# Variants of: B4
# Details: with hxa1_human HOXA1, P49639
# hxa1_human HOXA1, P49639, sequence (P49639 whole entry): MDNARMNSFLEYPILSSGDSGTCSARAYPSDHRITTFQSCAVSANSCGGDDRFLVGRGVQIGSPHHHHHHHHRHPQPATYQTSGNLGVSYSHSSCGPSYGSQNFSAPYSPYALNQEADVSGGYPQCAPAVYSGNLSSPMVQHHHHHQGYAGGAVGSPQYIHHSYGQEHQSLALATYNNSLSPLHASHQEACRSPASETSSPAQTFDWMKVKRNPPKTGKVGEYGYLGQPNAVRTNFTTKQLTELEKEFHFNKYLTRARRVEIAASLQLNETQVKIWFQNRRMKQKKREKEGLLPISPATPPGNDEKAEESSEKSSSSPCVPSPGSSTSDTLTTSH
row,effect of a mutation on the interaction,Variant
1,with no effect,H113Q

# Variants of: B4
# Details: with nt2na_human NOTCH2NLA
row,effect of a mutation on the interaction,Variant
1,with no effect,H113Q

# Variants of: B4
# Details: with kr101_human KRTAP10-1, P60331
# kr101_human KRTAP10-1, P60331, sequence (P60331 whole entry): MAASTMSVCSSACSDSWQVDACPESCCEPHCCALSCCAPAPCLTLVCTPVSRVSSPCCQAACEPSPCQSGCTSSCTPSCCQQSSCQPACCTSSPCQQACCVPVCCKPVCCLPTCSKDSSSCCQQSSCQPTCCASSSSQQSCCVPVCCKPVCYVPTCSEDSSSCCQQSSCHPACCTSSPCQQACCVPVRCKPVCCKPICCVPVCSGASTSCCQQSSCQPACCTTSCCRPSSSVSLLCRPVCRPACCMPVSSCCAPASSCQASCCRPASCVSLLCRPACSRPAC
row,effect of a mutation on the interaction,Variant
1,with no effect,H113Q

# Variants of: B4
# Details: with otx1_human OTX1, P32242
# otx1_human OTX1, P32242, sequence (P32242 whole entry): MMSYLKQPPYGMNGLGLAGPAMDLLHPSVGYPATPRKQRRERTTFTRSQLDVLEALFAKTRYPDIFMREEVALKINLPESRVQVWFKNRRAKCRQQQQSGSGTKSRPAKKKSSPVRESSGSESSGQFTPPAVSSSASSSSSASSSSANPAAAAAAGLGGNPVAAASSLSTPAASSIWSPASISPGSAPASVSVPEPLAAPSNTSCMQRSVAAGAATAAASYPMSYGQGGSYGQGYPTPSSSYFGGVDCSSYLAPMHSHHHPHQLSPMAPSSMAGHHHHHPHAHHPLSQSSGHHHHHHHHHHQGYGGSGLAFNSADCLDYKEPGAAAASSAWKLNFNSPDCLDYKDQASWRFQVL
row,effect of a mutation on the interaction,Variant
1,with no effect,H113Q
